Reference: US20080293922A1 (POSCO, published 2008)

Biological target: T1, neuropilin-1 on MDA-MB-231 tumor cells (UniProt O14786 22-923, limits assumed)
T1 construct: whole, on cells
Assay: Binding of VEGF to MDA-MB-231 cells with or without Aβ peptides (data not shown)

binding result: binds
B1: Vascular endothelial growth factor VEGF165 (ligand)
chain: APMAEGGGQNHHEVVKFMDVYQRSYCHPIETLVDIFQEYPDEIEYIFKPSCVPLMRCGGCCNDEGLECVPTEESNITMQIMRIKPHQGQHIGEMSFLQHNKCECRPKKDRARQENPCGPCSERRKHLFVQDPQTCKCSCKNTDSRCKARQLELNERTCRCDKPRR
modifications: 125I label in the radioligand, co-aggregation, dissociation and trapping assays (position not given)
notes: 125I-VEGF was bought from Amersham; also called 125I-VEGF; 125I-VEGF165
